Source: patent publication US9243231B2, “Mutant cytochrome P450 2B6 proteins and uses thereof” (Institut National de la Santé et de la Recherche Médicale …, priority 2011, dated 2016)
Numbering of substitutions follows the chain as printed. Numbers in names are those of the source. Entries after “also recorded” stand apart in the source; their conditions may differ.

B1: CYP2B6TM: human CYP2B6 triple mutant with substitutions I114V, L199M and V477W (SEQ ID No 1) (protein, listed as Homo sapiens)
chain: MELSVLLFLALLTGLLLLLVQRHPNTHDRLPPGPRPLPLLGNLLQMDRRGLLKSFLRFREKYGDVFTVHLGPRPVVMLCGVEAIREALVDKAEAFSGRGKIAMVDPFFRGYGVVFANGNRWKVLRRFSVTTMRDFGMGKRSVEERIQEEAQCLIEELRKSKGALMDPTFLFQSITANIICSIVFGKRFHYQDQEFLKMMNLFYQTFSLISSVFGQLFELFSGFLKYFPGAHRQVYKNLQEINAYIGHSVEKHRETLDPSAPKDLIDTYLLHMEKEKSNAHSEFSHQNLNLNTLSLFFAGTETTSTTLRYGFLLMLKYPHVAERVYREIEQVIGPHRPPELHDRAKMPYTEAVIYEIQRFSDLLPMGVPHIVTQHTSFRGYIIPKDTEVFLILSTALHDPHYFEKPDAFNPDHFLDANGALKKTEAFIPFSLGKRICLGEGIARAELFLFFTTILQNFSMASPVAPEDIDLTPQECGWGKIPPTYQIRFLPR
B2: I114V/V477W: previously published CYP2B6 double active site mutant (Nguyen et al 2008) (protein, UniProt P20813 1-491, looked up, variant I114V V477W)
Cytochrome P450 2B6: B1 chain with M199L
B3: CYP2B6wt: wild-type human cytochrome P450 2B6, without reductase (protein, UniProt P20813 1-491, looked up)
Cytochrome P450 2B6: B1 chain with V114I, M199L, W477V

Legend:
[1] = test system: TC1-Luc2 mouse pulmonary tumour cells; experiment: In vivo cytotoxicity assay, subcutaneous TC1 tumours in mice treated with CPA; settings: CPA 140 mg/kg i.p., C57Bl6 mice, FIG. 14
Description: To test the capacity of the triple mutant to enhance the response to CPA in vivo, a mouse model was used. Mouse pulmonary tumour cells (TC1-Luc2) were infected with a lentivirus vector carrying the CYP2B6TM-RED construct and injected subcutaneously into C57Bl6 mice. As a control, uninfected TC1 cells-were injected. TC1-Luc2 cells express luciferase, permitting tumour size to be monitored via bioluminescence.
In initial experiments, 10 mice were injected with CYP2B6TM-RED-TC1 cells and 10 were injected with uninfected TC1 cells. Tumour growth was monitored, and when the tumour size reached approximately 400 mm^3 half of the mice were treated with CPA via intraperitoneal injection at 140 mg/kg. untreated mice were sacrificed when tumour volume reached around 1500 mm^3.

[2] = CPA 4-hydroxylase activity in yeast microsomes; type: biochemical; settings: for Vmax of CPA-4' hydroxylation / Km / CPA hydroxylase activity Vmax: yeast microsomes; for Vmax of CPA-4' hydroxylation / Km: FIG. 9; for Km: read-out: Km of CPA-4' hydroxylation; for CPA hydroxylase activity Vmax: Table 1
From the text: CYP2B6 wt or CYP2B6TM alone or in fusion with RED were expressed in the MR) yeast strain, in which yeast NADPH cytochrome P450 reductase was constitutively expressed. The pYeDP60 plasmids were introduced into intact yeast cells based on a refined lithium acetate-mediated protocol as described in Truan et al, 1993, above. Yeast culture conditions were as described in Bellamine A, Gautier J C, Urban P, Pompon D (1994): Chimeras of the human cytochrome P450 1A family produced in yeast. Accumulation in microsomal membranes, enzyme kinetics and stability. Eur J Biochem 225:1005-13. Yeast microsomes were prepared based on the mechanical disruption method using glass beads as described in Bellamine A, Gautier J C, Urban P, Pompon D. (1994): Chimeras of the human cytochrome P450 1A family produced in yeast. Accumulation in microsomal membranes, enzyme kinetics and stability. Eur J Biochem 225:1005-13. The fluorometric determination of yeast microsomal CPA 4-hydroxylase was adapted from a technique described previously (Roy P, Yu […]. (1999): […] Drug Metab Dispos 27:655-66) for a 96-well microplate with several modifications. Incubations were carried out for 1 h at 28° C. in a total volume of 200 μl and included 100 mM sodium phosphate buffer, pH 7.4, 1 mM EDTA, 10 pmol of CYP2B6 wt or CYP2B6TM or CYP2B6TM-RED with different linkers (microsomal P450 content was spectrally determined by the method of Schoene […], von Oldershausen H F. (1972): Determination of drug metabolizing enzymes in needle biopsies of human liver. Eur J Clin Pharmacol 4:65-73) and 10 mM CPA. Reactions were initiated by adding the NADPH-generating system and stopped by the addition of 200 μl of 10% trichloroacetic acid. After centrifugation at 13,000 g and 4° C. for 15 min to pellet the proteins, 300 μl of the supernatant was transferred to a clean test tube containing 160 μl of the fluorescence mixture (6 mg of 3-aminophenol and 6 mg of hydroxylamine hydrochloride freshly dissolved in 1 ml of 1N HCl). […] After cooling to room temperature, fluorescence reading were performed on a Bio-tek FL600 microplate fluorescence reader (excitation at 350 nm and emission at 515 nm). […] Data were analyzed using Prism software (Graph-Pad Software, Inc., San Diego, Calif.) to calculate kinetic parameters (Km, Vmax), with Vmax values expressed as moles of product formed per minute, normalized to the moles of P450 included in each reaction (turnover number expressed as minutes^-1). Data shown were based on duplicate determinations for each data point.

[3] = double mutant, earlier publication; cited from earlier work

Molecule | Vmax of CPA-4' hydroxylation [2] | Km [2] | CPA hydroxylase activity Vmax [2] | other results
O=P1(N(CCCl)CCCl)NCCCO1 (stereo not drawn) [CPA, cyclophosphamide] | – | – | – | change in tumour volume after CPA, uninfected TC1 tumours [1]: only a modest effect on the uninfected tumour cells and did not produce an overall reduction in tumour volume; also recorded: slowed this rapid increase in uninfected tumour cells but obtained no reduction in overall tumour size
B1 | 107.5 ± 3.4 min⁻¹ | 510 ± 80 µM | 105.5 nmol 4OH-CPA/min/nmol CYP2B6 | change in tumour volume after CPA, tumours expressing CYP2B6TM-RED [1]: dramatic reductions in tumour size; affinity for CPA relative to wild-type enzyme ([2]; greater than wild-type): 8 times; Vmax compared with wild-type enzyme ([2]; in words): retaining the same Vmax; efficiency at metabolising CPA into cytotoxic metabolite relative to wild-type ([2]; more efficient than wild-type protein): 10 times
B2 | – | – | – | CPA-4-hydroxylation efficiency compared to wild-type enzyme [3]: four-fold increase
B3 | 107.3 ± 3.74 min⁻¹ | 4330 ± 500 µM | 62.5 nmol 4OH-CPA/min/nmol CYP2B6 | –
